According to article PMC4517634:

How the values were obtained:
[1] = biological target: human cathepsin G (human) (UniProt P08311)
[2] = biological target: human cathepsin L (human)

Sequence of human cathepsin G (human) (P08311 21-244): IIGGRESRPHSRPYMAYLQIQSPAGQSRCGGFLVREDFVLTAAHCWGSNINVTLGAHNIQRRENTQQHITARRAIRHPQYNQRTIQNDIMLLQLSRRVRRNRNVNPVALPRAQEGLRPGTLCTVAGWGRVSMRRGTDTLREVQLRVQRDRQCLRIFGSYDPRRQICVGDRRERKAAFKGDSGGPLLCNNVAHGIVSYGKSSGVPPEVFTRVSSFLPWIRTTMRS

## recombinant His-tagged ANISERP protein (baculovirus system) (from UniProt F4MST7 1-397) (natural protein)
Human thrombin (human)
  IC50 of inhibition of thrombin (74 nM) proteolytic activity on Boc-Val-Arg-AMC after 10 min at 37 °C with ANISERP: 152 nM
Human trypsin (human)
  IC50 of inhibition of trypsin (54 nM) proteolytic activity on Boc-Gln-Ala-Arg-AMC: 173 nM
[1]
  IC50 of inhibition of cathepsin G (0.33 nM) proteolytic activity on N-succinyl-Ala-Ala-Phe-AMC: 542 nM
[2]
  IC50 of inhibition of cathepsin L (0.83 nM) proteolytic activity on Z-Phe-Arg-AMC: 217 nM
